According to patent US10808024B2, “Antibodies against immunocomplexes comprising cyanobacterial cyclic peptide hepatotoxins” (priority 2015, dated 2020):
Changes are numbered by the printed parent chain. Entries after “also recorded” stand apart in the source; their conditions may differ.

B1: SA51D12: variant-specific anti-IC antibody, MC-LR (antibody, V domains shown)
VH: EVQLLESGGGLVQPGGSLRLSCAASGFTFSSDVMHWVRQAPGKGLEWVSVISGYDGYTRYADSVKGRFTISRDNSKNTLYLQMNSLRAEDTAVYYCARGVPYLYGAYSFDYWGQGTLVTVSS
VL: EIVLTQSPGTLSLSPGERATLSCRASQSVSSSNLAWYQQKPGQAPRLLIYGASSRATGVPDRFSGSGSGTDFTLTISRLEPEDFAVYYCQQSSTPWTFGQGTKVEIKRT
modifications: Clone SA51D12; DOMAIN (31)..(35) CDR1; DOMAIN (50)..(66) CDR2; DOMAIN (99)..(111) CDR3; DOMAIN (24)..(35) CDR1; DOMAIN (51)..(57) CDR2; DOMAIN (90)..(98) CDR3
B2: SA51F6: group-specific anti-immunocomplex antibody (antibody, V domains shown)
VH: EVQLLESGGGLVQPGGSLRLSCAASGFTFSDYWMHWVRQAPGKGLEWVSEIWYSSGYTNYADSVKGRFTISRDNSKNTLYLQMNSLRAEDTAVYYCARDAFPWDVFDYWGQGTLVTVSS
VL: EIVLTQSPGTLSLSPGERATLSCRASQSVSSSYLAWYQQKPGQAPRLLIYGASSRATGVPDRFSGSGSGTDFTLTISRLEPEDFAVYYCQQSSSTPWTFGQGTKVEIKRT
modifications: Clone SA51F6; DOMAIN (31)..(35) CDR1; DOMAIN (50)..(66) CDR2; DOMAIN (99)..(108) CDR3; DOMAIN (24)..(35) CDR1; DOMAIN (51)..(57) CDR2; DOMAIN (90)..(98) CDR3
B3: SA51H4: MC-XR subgroup-specific anti-IC antibody (antibody, V domains shown)
VH: B2 VH with Y53P, S54Y, S55D, A100P, F101G, W103E, D104G
VL: B2 VL with Y33N, T95Y
modifications: Clone SA51H4; DOMAIN (31)..(35) CDR1; DOMAIN (50)..(66) CDR2; DOMAIN (99)..(108) CDR3; DOMAIN (24)..(35) CDR1; DOMAIN (51)..(57) CDR2; DOMAIN (90)..(98) CDR3
B4: SA56D5: subgroup specific anti-IC antibody with MC-LR preferring specificity (antibody, V domains shown)
VH: EVQLLESGGGLVQPGGSLRLSCAASGFTFSDYYMHWVRQAPGKGLEWVSYIDGNGGYTDYADSVKGRFTISRDNSKNTLYLQMNSLRAEDTAVYYCARYWFDSSYKHRYFDYWGQGTLVTVSS
VL: B2 VL with Y33N, T95Y
modifications: Clone SA56D5; DOMAIN (31)..(35) CDR1; DOMAIN (50)..(66) CDR2; DOMAIN (99)..(112) CDR3; DOMAIN (24)..(35) CDR1; DOMAIN (51)..(57) CDR2; DOMAIN (90)..(98) CDR3
B5: SA33D5: XR subgroup-specific anti-IC antibody (antibody, V domains shown)
VH: EVQLLESGGGLVQPGGSLRLSCAASGFTFSSDVMHWVRQAPGKGLEWVSEIDPNDGSTRYADSVKGRFTISRDNSKNTLYLQMNSLRAEDTAVYYCAREYGAVSWSVVVFDYWGQGTLVTVSS
VL: B2 VL with Y33N, T95Y
modifications: Clone SA33D5; DOMAIN (31)..(35) CDR1; DOMAIN (50)..(66) CDR2; DOMAIN (99)..(112) CDR3; DOMAIN (24)..(35) CDR1; DOMAIN (51)..(57) CDR2; DOMAIN (90)..(98) CDR3
B6: SA42E10: MC subgroup-specific anti-IC binder (antibody, V domains shown)
VH: EVQLLESGGGLVQPGGSLRLSCAASGFTFSDYAMHWVRQAPGKGLEWVSSIIPYTGTTDYADSVKGRFTISRDNSKNTLYLQMNSLRAEDTAVYYCARTDDLIGHYDVYYYFDYWGQGTLVTVSS
VL: B2 VL with T95L
modifications: Clone SA42E10; DOMAIN (31)..(35) CDR1; DOMAIN (50)..(66) CDR2; DOMAIN (99)..(114) CDR3; DOMAIN (24)..(35) CDR1; DOMAIN (51)..(57) CDR2; DOMAIN (90)..(98) CDR3
B7: SA60A1: subgroup specific anti-IC antibody with MC-LR preferring specificity (antibody, V domains shown)
VH: EVQLLESGGGLVQPGGSLRLSCAASGFTFSPYYMHWVRQAPGKGLEWVSYITPYDGYTDYADSVKGRFTISRDNSKNTLYLQMNSLRAEDTAVYYCARYSYVGSVRTRVFDYWGQGTLVTVSS
VL: B2 VL with Y33N, S93Y, T95Y
modifications: Clone SA60A1; DOMAIN (31)..(35) CDR1; DOMAIN (50)..(66) CDR2; DOMAIN (99)..(112) CDR3; DOMAIN (24)..(35) CDR1; DOMAIN (51)..(57) CDR2; DOMAIN (90)..(98) CDR3
B8: SA57A3: subgroup specific anti-IC antibody with MC-LR preferring specificity (antibody, V domains shown)
VH: EVQLLESGGGLVQPGGSLRLSCAASGFTFSDYYMHWVRQAPGKGLEWVSYINTYDGNTDYADSVKGRFTISRDNSKNTLYLQMNSLRAEDTAVYYCARYYNPYTRRRVFDYWGQGTLVTVSS
VL: B2 VL with Y33N, T95Y
modifications: Clone SA57A3; DOMAIN (31)..(35) CDR1; DOMAIN (50)..(66) CDR2; DOMAIN (99)..(111) CDR3; DOMAIN (24)..(35) CDR1; DOMAIN (51)..(57) CDR2; DOMAIN (90)..(98) CDR3
B9: SA56E7: variant-specific anti-IC antibody, MC-LR (antibody, V domains shown)
VH: EVQLLESGGGLVQPGGSLRLSCAASGFTFSRYYMHWVRQAPGKGLEWVSYIWPVDGETDYADSVKGRFTISRDNSKNTLYLQMNSLRAEDTAVYYCARYVYGNSVGRVFDYWGQGTLVTVSS
VL: B2 VL with Y33N, S93Y, T95Y
modifications: Clone SA56E7; DOMAIN (31)..(35) CDR1; DOMAIN (50)..(66) CDR2; DOMAIN (99)..(111) CDR3; DOMAIN (24)..(35) CDR1; DOMAIN (51)..(57) CDR2; DOMAIN (90)..(98) CDR3
B10: SA41A5: MC-XR subgroup-specific anti-IC antibody (antibody, V domains shown)
VH: EVQLLESGGGLVQPGGSLRLSCAASGFTFSNYYMHWVRQAPGKGLEWVSEINYDGETDYADSVKGRFTISRDNSKNTLYLQMNSLRAEDTAVYYCARDGFWYGTAFDYWGQGTLVTVSS
VL: B2 VL with Y33A, S92M, S93H
modifications: Clone SA41A5; DOMAIN (31)..(35) CDR1; DOMAIN (50)..(66) CDR2; DOMAIN (99)..(108) CDR3; DOMAIN (24)..(35) CDR1; DOMAIN (51)..(57) CDR2; DOMAIN (90)..(98) CDR3
B11: SA52C2: MC subgroup-specific anti-IC binder (antibody, V domains shown)
VH: EVQLLESGGGLVQPGGSLRLSCAASGFTFSSDVMHWVRQAPGKGLEWVSEIDPSDGTTNYADSVKGRFTISRDNSKNTLYLQMNSLRAEDTAVYYCARSYLDWPLDVWGQGTLVTVSS
VL: B2 VL with Y33N, S92M, S93H
modifications: Clone SA52C2; DOMAIN (31)..(35) CDR1; DOMAIN (50)..(66) CDR2; DOMAIN (99)..(107) CDR3; DOMAIN (24)..(35) CDR1; DOMAIN (51)..(57) CDR2; DOMAIN (90)..(98) CDR3
B12: SA52B4: XR subgroup-specific anti-IC antibody (antibody, V domains shown)
VH: EVQLLESGGGLVQPGGSLRLSCAASGFTFSDYSMHWVRQAPGKGLEWVSEIWTNTGYTNYADSVKGRFTISRDNSKNTLYLQMNSLRAEDTAVYYCARESWEWFSIVFDYWGQGTLVTVSS
VL: B2 VL with Y33A, S92Y
modifications: Clone SA52B4; DISULFID (31)..(35) CDR1; DISULFID (50)..(66) CDR2; DISULFID (99)..(110) CDR3; DOMAIN (24)..(35) CDR1; DOMAIN (51)..(57) CDR2; DOMAIN (90)..(98) CDR3
B13: SA41F2: XR subgroup-specific anti-IC antibody (antibody, V domains shown)
VH: EVQLLESGGGLVQPGGSLRLSCAASGFTFSNYGMHWVRQAPGKGLEWVSEIDYVDGNTYYADSVKGRFTISRDNSKNTLYLQMNSLRAEDTAVYYCAREVYAHGIAAFDYWGQGTLVTVSS
VL: B2 VL with Y33A, S92Y
modifications: Clone SA41F2; DOMAIN (31)..(35) CDR1; DOMAIN (50)..(66) CDR2; DOMAIN (99)..(110) CDR3; DOMAIN (24)..(35) CDR1; DOMAIN (51)..(57) CDR2; DOMAIN (90)..(98) CDR3
B14: SA59G2: variant-specific anti-IC antibody, MC-LR (antibody, V domains shown)
VH: EVQLLESGGGLVQPGGSLRLSCAASGFTFSNYYMHWVRQAPGKGLEWVSYIDPVGGETYYADSVKGRFTISRDNSKNTLYLQMNSLRAEDTAVYYCARYYYWGYRAFDYWGQGTLVTVSS
VL: B2 VL with Y33A, T95L
modifications: Clone SA59G2; DOMAIN (31)..(35) CDR1; DOMAIN (51)..(66) CDR2; DOMAIN (99)..(109) CDR3; DOMAIN (24)..(35) CDR1; DOMAIN (51)..(57) CDR2; DOMAIN (90)..(98) CDR3

System: immunocomplexes of CCPH variants and anti-Adda mAb
Assay: Screening and cross-reactivity studies of anti-IC scFv-AP binders, specificity class
Format: binding

| Molecule | Specificity of anti-IC antibody (CCPH immunocomplexes recognized) |
| --- | --- |
| B1 | recognize immunocomplexes comprising MC-LR; also recorded: MC-LR and MC-LZ specific |
| B2 | group-specific |
| B3 | specific for a subgroup MC-XR |
| B4 | MC-LR preferring specificity |
| B5 | specific for a subgroup XR |
| B6 | MC subgroup-specific |
| B7 | MC-LR preferring specificity |
| B8 | MC-LR preferring specificity |
| B9 | recognize immunocomplexes comprising MC-LR |
| B10 | specific for a subgroup MC-XR |
| B11 | MC subgroup-specific |
| B12 | specific for a subgroup XR |
| B13 | specific for a subgroup XR |
| B14 | recognize immunocomplexes comprising MC-LR |
